Legend:
Settings in all cases: Pseudomonas putida
[1] = compound: NC(Cc1[nH]cnc1[N+](=O)[O-])C(=O)O; assay: The kinetic constant with the compound as substrate of HAL mutant S143G was determined using L-hisdine as competitive inhibitor
[2] = substrate: NC(Cc1[nH]cnc1[N+](=O)[O-])C(=O)O; assay: (§1) The kinetic constant with the compound as substrate of S143T mutant enzyme was determined
[3] = substrate: N[C@@H](Cc1c[nH]cn1)C(=O)O; assay: as §1
[4] = compound: NC(Cc1[nH]cnc1[N+](=O)[O-])C(=O)O; assay: The kinetic constant with the compound as substrate of recombinant wild-type Escherichia coli BL21 was determined using L-hisdine as competitive inhibitor
[5] = substrate: NC(Cc1[nH]cnc1[N+](=O)[O-])C(=O)O; assay: (§2) The kinetic constant with the compound as substrate of recombinant wild-type HAL enzyme was determined
[6] = substrate: N[C@@H](Cc1c[nH]cn1)C(=O)O; assay: as §2
[7] = compound: NC(Cc1[nH]cnc1[N+](=O)[O-])C(=O)O; assay: The kinetic constant with the compound as substrate of wild-type Pseudomonas ATCC 11299b was determined using L-hisdine as competitive inhibitor
[8] = substrate: NC(Cc1[nH]cnc1[N+](=O)[O-])C(=O)O; assay: (§3) The kinetic constant with the compound as substrate of S143A mutant enzyme was determined
[9] = substrate: N[C@@H](Cc1c[nH]cn1)C(=O)O; assay: as §3
[10] = substrate: NC(Cc1[nH]cnc1[N+](=O)[O-])C(=O)O; assay: (§4) The kinetic constant with the compound as substrate of S143G mutant enzyme was determined
[11] = substrate: N[C@@H](Cc1c[nH]cn1)C(=O)O; assay: as §4

B1: Histidine ammonia-lyase (Homo sapiens), P42357 (protein)
chain: MPRYTVHVRGEWLAVPCQDAQLTVGWLGREAVRRYIKNKPDNGGFTSVDDAHFLVRRCKGLGLLDNEDRLEVALENNEFVEVVIEGDAMSPDFIPSQPEGVYLYSKYREPEKYIELDGDRLTTEDLVNLGKGRYKIKLTPTAEKRVQKSREVIDSIIKEKTVVYGITTGFGKFARTVIPINKLQELQVNLVRSHSSGVGKPLSPERCRMLLALRINVLAKGYSGISLETLKQVIEMFNASCLPYVPEKGTVGASGDLAPLSHLALGLVGEGKMWSPKSGWADAKYVLEAHGLKPVILKPKEGLALINGTQMITSLGCEAVERASAIARQADIVAALTLEVLKGTTKAFDTDIHALRPHRGQIEVAFRFRSLLDSDHHPSEIAESHRFCDRVQDAYTLRCCPQVHGVVNDTIAFVKNIITTELNSATDNPMVFANRGETVSGGNFHGEYPAKALDYLAIGIHELAAISERRIERLCNPSLSELPAFLVAEGGLNSGFMIAHCTAAALVSENKALCHPSSVDSLSTSAATEDHVSMGGWAARKALRVIEHVEQVLAIELLAACQGIEFLRPLKTTTPLEKVYDLVRSVVRPWIKDRFMAPDIEAAHRLLLEQKVWEVAAPYIEKYRMEHIPESRPLSPTAFSLQFLHKKSTKIPESEDL
**Q.** What does the source list for B1?
**A.** Km [1]: 5.3 mM; Km [2]: 12.8 mM; Vmax [2]: 0.87 IU mg-1; Km [3]: 3.1 mM; Vmax [3]: 0.00047 IU mg-1; Km [4]: 5.2 mM; Km [5]: 7.7 mM; Vmax [5]: 0.85 IU mg-1; Km [6]: 5.2 mM; Vmax [6]: 25 IU mg-1; Km [7]: 4 mM; Km [8]: 9.8 mM; Vmax [8]: 0.87 IU mg-1; Km [9]: 7.5 mM; Vmax [9]: 0.0214 IU mg-1; Km [10]: 4 mM; Vmax [10]: 0.52 IU mg-1; Km [11]: 5.3 mM; Vmax [11]: 0.0047 IU mg-1
